B1: Actin nucleation-promoting factor WAS (Homo sapiens), P42768 (parent)
chain: MSGGPMGGRPGGRGAPAVQQNIPSTLLQDHENQRLFEMLGRKCLTLATAVVQLYLALPPGAEHWTKEHCGAVCFVKDNPQKSYFIRLYGLQAGRLLWEQELYSQLVYSTPTPFFHTFAGDDCQAGLNFADEDEAQAFRALVQEKIQKRNQRQSGDRRQLPPPPTPANEERRGGLPPLPLHPGGDQGGPPVGPLSLGLATVDIQNPDITSSRYRGLPAPGPSPADKKRSGKKKISKADIGAPSGFKHVSHVGWDPQNGFDVNNLDPDLRSLFSRAGISEAQLTDAETSKLIYDFIEDQGGLEAVRQEMRRQEPLPPPPPPSRGGNQLPRPPIVGGNKGRSGPLPPVPLGIAPPPPTPRGPPPPGRGGPPPPPPPATGRSGPLPPPPPGAGGPPMPPPPPPPPPPPSSGNGPAPPPLPPALVPAGGLAPGGGRGALLDQIRQGIQLNKTPGAPESSALQPPPQSSEGLVGALMHVMQKRSRAIHSSDEGEDQAGDEDEDDEWDD

The variants in the test derive from B1. Conditions: with wipf1_human WIPF1, O43516.
Chain of wipf1_human WIPF1, O43516 (O43516 whole entry): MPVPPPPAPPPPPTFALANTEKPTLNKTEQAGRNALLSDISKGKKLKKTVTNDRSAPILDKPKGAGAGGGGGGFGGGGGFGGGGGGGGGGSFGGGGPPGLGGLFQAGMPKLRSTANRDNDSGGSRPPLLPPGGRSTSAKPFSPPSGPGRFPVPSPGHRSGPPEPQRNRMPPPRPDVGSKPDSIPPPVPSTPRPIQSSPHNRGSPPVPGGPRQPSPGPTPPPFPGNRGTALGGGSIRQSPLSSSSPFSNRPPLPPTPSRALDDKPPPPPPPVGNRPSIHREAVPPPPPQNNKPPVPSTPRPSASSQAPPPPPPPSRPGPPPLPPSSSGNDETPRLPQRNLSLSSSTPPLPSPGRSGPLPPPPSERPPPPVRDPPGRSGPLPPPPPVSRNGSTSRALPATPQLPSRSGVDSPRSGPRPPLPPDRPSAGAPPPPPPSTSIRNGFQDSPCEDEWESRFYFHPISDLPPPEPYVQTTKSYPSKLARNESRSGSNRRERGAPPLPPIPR
MSGGPMGGRPGGRGAPAVQQNIPSTLLQDHENQRLFEMLGRKCLTLATAVVQLYLALPPGAEHWTKEHCGAVCFVKDNPQKSYFIRLYGLQAGRLLWEQELYSQLVYSTPTPFFHTFAGDDCQAGLNFADEDETQAFRALVQEKIQKRNQRQSGDRRQLPPPPTPANEERRGGLPPLPLHPGGDQGGPPVGPLSLGLATVDIQNPDITSSRYRGLPAPGPSPADKKRSGKKKISKADIGAPSGFKHVSHVGWDPQNGFDVNNLDPDLRSLFSRAGISEAQLTDAETSKLIYDFIEDQGGLEAVRQEMRRQEPLPPPPPPSRGGNQLPRPPIVGGNKGRSGPLPPVPLGIAPPPPTPRGPPPPGRGGPPPPPPPATGRSGPLPPPPPGAGGPPMPPPPPPPPPPPSSGNGPAPPPLPPALVPAGGLAPGGGRGALLDQIRQGIQLNKTPGAPESSALQPPPQSSEGLVGALMHVMQKRSRAIHSSDEGEDQAGDEDEDDEWDD [A134T]: the “effect of a mutation on the interaction” value was “decreasing interaction”. The result for MSGGPMGGRPGGRGAPAVQQNIPSTLLQDHENQRLFEMLGRKCLTLATAVVQLYLALPPGAEHWTKEHCGAVCFVKDNPQKSYFIRLYGLQAGRLLWEQELYSQLVCSTPTPFFHTFAGDDCQAGLNFADEDEAQAFRALVQEKIQKRNQRQSGDRRQLPPPPTPANEERRGGLPPLPLHPGGDQGGPPVGPLSLGLATVDIQNPDITSSRYRGLPAPGPSPADKKRSGKKKISKADIGAPSGFKHVSHVGWDPQNGFDVNNLDPDLRSLFSRAGISEAQLTDAETSKLIYDFIEDQGGLEAVRQEMRRQEPLPPPPPPSRGGNQLPRPPIVGGNKGRSGPLPPVPLGIAPPPPTPRGPPPPGRGGPPPPPPPATGRSGPLPPPPPGAGGPPMPPPPPPPPPPPSSGNGPAPPPLPPALVPAGGLAPGGGRGALLDQIRQGIQLNKTPGAPESSALQPPPQSSEGLVGALMHVMQKRSRAIHSSDEGEDQAGDEDEDDEWDD [Y107C] reads “decreasing interaction”; that for MSGGPMGGRPGGRGAPAVQQNIPSTLLQDHENQRLFEMLGRKCLTLATAVVQLYLALPPGAEHWTKEHCGAVCFVKDNPQKSYFIHLYGLQAGRLLWEQELYSQLVYSTPTPFFHTFAGDDCQAGLNFADEDEAQAFRALVQEKIQKRNQRQSGDRRQLPPPPTPANEERRGGLPPLPLHPGGDQGGPPVGPLSLGLATVDIQNPDITSSRYRGLPAPGPSPADKKRSGKKKISKADIGAPSGFKHVSHVGWDPQNGFDVNNLDPDLRSLFSRAGISEAQLTDAETSKLIYDFIEDQGGLEAVRQEMRRQEPLPPPPPPSRGGNQLPRPPIVGGNKGRSGPLPPVPLGIAPPPPTPRGPPPPGRGGPPPPPPPATGRSGPLPPPPPGAGGPPMPPPPPPPPPPPSSGNGPAPPPLPPALVPAGGLAPGGGRGALLDQIRQGIQLNKTPGAPESSALQPPPQSSEGLVGALMHVMQKRSRAIHSSDEGEDQAGDEDEDDEWDD [R86H], “decreasing interaction”.

The values above are taken from IntAct's records for PubMed 10202051.
